{"source": "patent US20040001839A1", "about": "“Multimers - isolated molecules comprising epitopes containing sulfated moieties, antibodies to such epitopes, and uses thereof” (priority 2000, published 2004)", "test_system": "KG-1 cells", "assay": "FACS of Y1-biotag and Y1-biotag/streptavidin-PE tetramers on KG-1 cells", "format": "binding, human", "description": "In a preferred method, tetramers are formed via a biotin/streptavidin association. A novel fermentation construct that is capable of being enzymatically labeled with biotin (referred to herein as Y1-biotag or Y1-B) was created. A sequence that is a substrate for the BirA enzyme was added at the Y1 C-terminus. The BirA enzyme adds a biotin to the lysine residue within the sequence. Y1-biotag was expressed in E. coli. The inclusion body material was isolated and refolded. The purity of the folded protein was >95%, and >100 mg were obtained from a 1-L culture (small-scale, non-optimized conditions). […] Nevertheless, this construct offered the advantage of specific biotinylation in which the binding site of the molecule remains intact. Further, each molecule is labeled by only one biotin—each molecule receives one biotin on the carboxyl end.\nLimiting labeling to one biotin/molecule in a desired location enabled production of tetramers with streptavidin. The tetramers were formed by incubating Y1-B with steptavidin-PE.\nY1-biotag tetramers with streptavidin-PE appear to specifically bind to one of the Y1-reactive cell lines (KG-1). The differential of this reaction, from background binding, was very high, and offered high sensitivity to detect low amounts of receptor. […] Monocytes and granulocytes were positive to a small extent. […]"}
{"molecule": "Y1 tetramers: tetramers formed by incubating Y1-B with streptavidin-PE (protein, left off: another chain or arm of the molecule; large carriers; small tags and cut ends, tetramers formed by incubating Y1-B with streptavidin-PE) scFv 1: MEVQLVESGGGVVRPGGSLRLSCAASGFTFDDYGMSWVRQAPGKGLEWVSGINWNGGSTGYADSVKGRFTISRDNAKNSLYLQMNSLRAEDTAVYYCARMRAPVIWGQGTLVTVSRGGGGSGGGGSGGGGSSELTQDPAVSVALGQTVRITCQGDSLRSYYASWYQQKPGQAPVLVIYGKNNRPSGIPDRFSGSSSGNTASLTITGAQAEDEADYYCNSRDSSGNHVVFGGGTKLTVLGGGGLNDIFEAQKIEWHE scFv 2: MEVQLVESGGGVVRPGGSLRLSCAASGFTFDDYGMSWVRQAPGKGLEWVSGINWNGGSTGYADSVKGRFTISRDNAKNSLYLQMNSLRAEDTAVYYCARMRAPVIWGQGTLVTVSRGGGGSGGGGSGGGGSSELTQDPAVSVALGQTVRITCQGDSLRSYYASWYQQKPGQAPVLVIYGKNNRPSGIPDRFSGSSSGNTASLTITGAQAEDEADYYCNSRDSSGNHVVFGGGTKLTVLGGGGLNDIFEAQKIEWHE scFv 3: MEVQLVESGGGVVRPGGSLRLSCAASGFTFDDYGMSWVRQAPGKGLEWVSGINWNGGSTGYADSVKGRFTISRDNAKNSLYLQMNSLRAEDTAVYYCARMRAPVIWGQGTLVTVSRGGGGSGGGGSGGGGSSELTQDPAVSVALGQTVRITCQGDSLRSYYASWYQQKPGQAPVLVIYGKNNRPSGIPDRFSGSSSGNTASLTITGAQAEDEADYYCNSRDSSGNHVVFGGGTKLTVLGGGGLNDIFEAQKIEWHE scFv 4: MEVQLVESGGGVVRPGGSLRLSCAASGFTFDDYGMSWVRQAPGKGLEWVSGINWNGGSTGYADSVKGRFTISRDNAKNSLYLQMNSLRAEDTAVYYCARMRAPVIWGQGTLVTVSRGGGGSGGGGSGGGGSSELTQDPAVSVALGQTVRITCQGDSLRSYYASWYQQKPGQAPVLVIYGKNNRPSGIPDRFSGSSSGNTASLTITGAQAEDEADYYCNSRDSSGNHVVFGGGTKLTVLGGGGLNDIFEAQKIEWHE", "values": [{"measurement": "reactivity in positive cell lines such as KG-1", "setting": "FACS", "value": "at least 100 fold"}, {"measurement": "increase of the sensitivity of the binding", "setting": "complexes with Streptavidin-PE, FACS on KG-1 cells", "value": "at least 100 fold"}]}
